Measurements as given in the supplement of paper PMC7125110.
Fewer inactive variants are shown than the library holds.

B1: glmS ribozyme (parent)
chain: AUAAAAGCGCCAGAACUACAGAAAUGUAGUUGACGAGGAGGAGGUUUAUCGAAUUUUCGGCGGAUGCCUCCAAA

Variants of: B1
Assay: self-cleavage kobs at 640 uM GlcN6P; higher = faster cleavage; RNA array
Conditions: with glucosamine-6-phosphate
Summary of the method: (§1)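 Barcoded ribozyme variants, transcribed in situ by E. coli RNA polymerase on sequenced MiSeq chips, were followed via a hybridised Cy3 probe at 37 °C. Glucosamine-6-phosphate ranged from 40 μM to 10 mM in HEPES/KCl/Mg(OAc)2 buffer. kobs came from decay fits to per-tile medians, and kcat and KM from weighted Michaelis–Menten fits.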

self-cleavage kobs at 640 uM GlcN6P, < 1e-05 s⁻¹:
AUAAAUGCGCCAGAACUACAGAAAUGUAUUUGACGAGGAGGAGGUUUAUCGCAUUUUCGGCGGAUGCCUCCAAA [A6U G29U A52C]
AUAAAAUCGCCAGAACUACAGAAAUGUAGUUGACGAGGAGGAGGUUUAUCGAUUUUUCGGCGGAGGCCUCCAAA [G7U A53U U65G]
AUAAAAACGCAAGAACUACAGAAAUGUAGUUGAUGCGGAGGAGGAUUAUCGAAUUUUCGGCGGAUGCCUCCAAA [G7A C11A C34U A36C U45A]
AUAAAAACGCCAGAUCUACAGAAAUGUAGUUGACGAGGAGGAGGUUUAUCGAAUUGUAGGCGGAUGCCUCCAAA [G7A A15U U56G C58A]
AUAAAAACGCCAGAACUACAGAAAUGUAGUUGACGAGGAGGAGGUUUAUCGACUUUUCGGCGGAUGCUUCCAAA [G7A A53C C68U]
AUAAAACCGCCAGCACUACAGAAAUGUAGUUGACGAGGAGGAGGUUUAUCGUAUUUUCGGCGGAUGCCUCCAAA [G7C A14C A52U]
AUAAAACCGCCAGAACUACAGAAAUGUAGUUGACGAGGAGGAGGUUUAUCGAAUUUUGGGCGGAUGCCUCCAAA [G7C C58G]
AUAAAAUCGCCAGAAAUACAGAAAUGUAGUUGACGAUGAGGAGGGUUAUCGAAUUUUCGGCGGAUGCCUCCAAA [G7U C16A G37U U45G]
AUAAAACUGCCAGAACUACAGAAAUGUAGUUGACGAGGAGGAGGUUUAUCGAAUUUUCGGCGGAUGCCUCCAAA [G7C C8U]
AUAAAUGCGCCAGAACUACAGAAAUGUAGUUGACGAGGAGGAGGUUUAUCGAAUGUUCGGCGGCUGCCUCCAAA [A6U U55G A64C]
AUAAAAACGCCAGAACUACAGAAAUGUAGUGGACGAGGAGGAGGUUUAUCGAAUUUUCGGCGGAUGUCUCCAAA [G7A U31G C67U]
AUAAAUGCGCCAGAACUACAGAAAUGUAGUUGGCGAGGAGGAGGUUUAUCGAAAUUUCGGCGGAUGCCUCCAAA [A6U A33G U54A]
AUAAAAACGCCCGAACUACAGAAAUGUAGUUGACGAGGAGGCGGUUUACCGAAUUUUCGGCGGAUGCCUCCAAA [G7A A12C A42C U49C]
AUAAAAACCCCAGAACUACAGAAAUGUAGUUGUCGAGGAGGAGGUUUAUCGAAUUUUCGGCGGAUCCCUCCAAA [G7A G9C A33U G66C]
AUAAAAUCGCCAGAACUACAGAAAUGUAGCUGACGAGGAGGAGGUUUAUCGAAUUUUCGGAGGAUGCCUCCAAA [G7U U30C C61A]
AUAAAAUCGCCAAAACUACAGAAAUGUAUUUGACGAGGAGGAGGUUUAUCGAAUUUUCGGCGGAUGCCUCCAAA [G7U G13A G29U]
AUAAAGGCGCCAGAACUACAGAAAUGUAGUUGACGAGGAGGAGGUUUAACGAAUUUUCGGCGGAUGCCUCCAAA [A6G U49A]
AUAAAAACGCGAGACCUACAGAAAUGUAGUUGACGAGGAGGAGGUUUAUAGAACUUUCGGCGGAUGCCUCCAAA [G7A C11G A15C C50A U54C]
AUAAAUGCGGCAGAACUACAGAAAUGUAGUUGACGAGGAGGAGGUUUAUCGACUUUUCGGCUGAUGCCUCCAAA [A6U C10G A53C G62U]
AUAAAUGCGCCAGAACUACAGAAAUGUAGUUGACGACGAAGAGGUUUAUCGAAUUUUCGGCGGAUGCCUCCAAA [A6U G37C G40A]
AUAAAUCCGCCAUAACUACAGAAAUGUAGUUGACGCGGAGGAGGUUUAUCGAAUUUUCGGCGGAUGCCUCCAAA [A6U G7C G13U A36C]
AUAAAUGCGCCAGAACUACAGAAAUGUAGUUGACGAGGAGAAGCUUUAUCGAAUUUUCGGCGGAUGGCUGCAAA [A6U G41A G44C C67G C70G]
AUAAAACCGCCUGACCUACAGAAAUGUAGUUGACGAGGAGGAGGUUUAUCGAAUUUUCGGCGGAUGCCUCCAAA [G7C A12U A15C]
AUAAAACCCCCAGAACUACAGAAAUGUAGUUGACGAGGAGGAGGUUUAUCGAAUUUUCGGCGGAUGCCUCCAAA [G7C G9C]

Variants of: B1
Assay: self-cleavage kobs at 2500 uM GlcN6P; higher = faster cleavage; RNA array
Conditions: with glucosamine-6-phosphate
Summary of the method: as §1

self-cleavage kobs at 2500 uM GlcN6P, < 1e-05 s⁻¹:
AUAAAAUCGCCAGAACUACAGAAAUGUAGUUGACGAGGAGGAGGUUUAUCGAUUUUUCGGCGGAGGCCUCCAAA [G7U A53U U65G]
AUAAAAACGCAAGAACUACAGAAAUGUAGUUGAUGCGGAGGAGGAUUAUCGAAUUUUCGGCGGAUGCCUCCAAA [G7A C11A C34U A36C U45A]
AUAAAAACGCCAGAACUACAGAAAUGUAGUUGACGAGGAGGAGGUUUAUCGACUUUUCGGCGGAUGCUUCCAAA [G7A A53C C68U]
AUAAAACCGCCAGCACUACAGAAAUGUAGUUGACGAGGAGGAGGUUUAUCGUAUUUUCGGCGGAUGCCUCCAAA [G7C A14C A52U]
AUAAAAACCCCAGAACUACAGAAAUGUAGUUGUCGAGGAGGAGGUUUAUCGAAUUUUCGGCGGAUCCCUCCAAA [G7A G9C A33U G66C]
AUAAAAUCGCCAAAACUACAGAAAUGUAUUUGACGAGGAGGAGGUUUAUCGAAUUUUCGGCGGAUGCCUCCAAA [G7U G13A G29U]
AUAAAAACGCGAGACCUACAGAAAUGUAGUUGACGAGGAGGAGGUUUAUAGAACUUUCGGCGGAUGCCUCCAAA [G7A C11G A15C C50A U54C]
AUAAAUGCGGCAGAACUACAGAAAUGUAGUUGACGAGGAGGAGGUUUAUCGACUUUUCGGCUGAUGCCUCCAAA [A6U C10G A53C G62U]
AUAAAUGCGCCAGAACUACAGAAAUGUAGUUGACGACGAAGAGGUUUAUCGAAUUUUCGGCGGAUGCCUCCAAA [A6U G37C G40A]
AUAAAUGCGCCAGAACUACAGAAAUGUAGUUGACGAGGAGAAGCUUUAUCGAAUUUUCGGCGGAUGGCUGCAAA [A6U G41A G44C C67G C70G]
AUAAAACCCCCAGAACUACAGAAAUGUAGUUGACGAGGAGGAGGUUUAUCGAAUUUUCGGCGGAUGCCUCCAAA [G7C G9C]

Variants of: B1
Assay: self-cleavage kobs at 10000 uM GlcN6P; higher = faster cleavage; RNA array
Conditions: with glucosamine-6-phosphate
Summary of the method: as §1

self-cleavage kobs at 10000 uM GlcN6P, < 1e-05 s⁻¹:
AUAAAAACGCAAGAACUACAGAAAUGUAGUUGAUGCGGAGGAGGAUUAUCGAAUUUUCGGCGGAUGCCUCCAAA [G7A C11A C34U A36C U45A]
AUAAAAUCGCCAAAACUACAGAAAUGUAUUUGACGAGGAGGAGGUUUAUCGAAUUUUCGGCGGAUGCCUCCAAA [G7U G13A G29U]
AUAAAGGCGCCAGAACUACAGAAAUGUAGUUGACGAGGAGGAGGUUUAACGAAUUUUCGGCGGAUGCCUCCAAA [A6G U49A]
